Experimental data published in IntAct's records for PubMed 16893902.

B1: Protein sprouty homolog 1 (Homo sapiens), O43609 (parent)
chain: MDPQNQHGSGSSLVVIQQPSLDSRQRLDYEREIQPTAILSLDQIKAIRGSNEYTEGPSVVKRPAPRTAPRQEKHERTHEIIPINVNNNYEHRHTSHLGHAVLPSNARGPILSRSTSTGSAASSGSNSSASSEQGLLGRSPPTRPVPGHRSERAIRTQPKQLIVDDLKGSLKEDLTQHKFICEQCGKCKCGECTAPRTLPSCLACNRQCLCSAESMVEYGTCMCLVKGIFYHCSNDDEGDSYSDNPCSCSQSHCCSRYLCMGAMSLFLPCLLCYPPAKGCLKLCRRCYDWIHRPGCRCKNSNTVYCKLESCPSRGQGKPS
B2: Protein sprouty homolog 2 (Homo sapiens), O43597 (parent)
chain: MEARAQSGNGSQPLLQTPRDGGRQRGEPDPRDALTQQVHVLSLDQIRAIRNTNEYTEGPTVVPRPGLKPAPRPSTQHKHERLHGLPEHRQPPRLQHSQVHSSARAPLSRSISTVSSGSRSSTRTSTSSSSSEQRLLGSSFSSGPVADGIIRVQPKSELKPGELKPLSKEDLGLHAYRCEDCGKCKCKECTYPRPLPSDWICDKQCLCSAQNVIDYGTCVCCVKGLFYHCSNDDEDNCADNPCSCSQSHCCTRWSAMGVMSLFLPCLWCYLPAKGCLKLCQGCYDRVNRPGCRCKNSNTVCCKVPTVPPRNFEKPT

Experiments:
cbl_human CBL, P22681 [1] = variants of: B1; details: with cbl_human CBL
grb2_human GRB2, P62993 [2] = variants of: B1; details: with grb2_human GRB2, P62993
cbl_human CBL, P22681 [3] = variants of: B2; details: with cbl_human CBL; remark: listed apart in the source
grb2_human GRB2, P62993 [4] = variants of: B2; details: with grb2_human GRB2, P62993; remark: listed apart in the source

Row | effect of a mutation on the interaction (cbl_human CBL, P22681 [1]) | effect of a mutation on the interaction (grb2_human GRB2, P62993 [2]) | effect of a mutation on the interaction (cbl_human CBL, P22681 [3]) | effect of a mutation on the interaction (grb2_human GRB2, P62993 [4]) | Variant
1 | disrupting interaction | decreasing interaction | – | – | Y53F
2 | – | – | disrupting interaction | decreasing interaction | Y55F
